Source: US6780971B2, “Compositions for inhibiting the aggregation pathway of α-synuclein” (Panacea Pharmaceuticals, Inc., priority 2000, dated 2004)

Columns and labels:
[1] = biological target: T1, C-terminal (approx. amino acids 113-140) of α-synuclein (Homo sapiens, UniProt P37840); experiment: Phage display selection for binding to C-terminal portion of α-synuclein; conditions: for binding to the C-terminal portion of α-synuclein: phage display
T1 construct: The peptides were selected using the α-synuclein 121-131 and 61-87 peptides as the bait
Description: (§1) Such peptides can be found, for instance, by using phage display to select for those phage expressing a peptide on their surface that binds to α-synuclein, and determining what the peptide is. The inhibitory effect of that peptide, or any peptide for that matter, can also be tested to determine its usefulness as an agent for treating a Lewy body disease or synucleinopathy by using assays such as those disclosed herein or as disclosed in U.S. Pat. No. 6,184,351, which is incorporated herein by reference. Such peptides have been selected for their ability to bind to the C-terminal (approx. amino acids 113-140), and the NAC portion (approx. amino acids 61-87) of α-synuclein, because this region is thought to be involved with the aggregation process. Several peptides that bind to the C-terminal portion are as follows (all peptides are given in […] order): (1) WRQTRKD (SEQ ID NO: 1); (2) HYAKNPI (SEQ ID NO: 2); (3) ATINKSL (SEQ ID NO: 3); (4) RRRGMAI (SEQ ID NO: 4); (5) THRLPSR (SEQ ID NO: 5); and (6) TKHGPRK (SEQ ID NO: 6). Several peptides that bind to the NAC portion are: (1) SLKRLPK (SEQ ID NO: 7); (2) RLRGRNQ (SEQ ID NO: 8); (3) WPFHHHR (SEQ ID NO: 9); (4) HLYHHKT (SEQ ID NO: 10); (5) THIHHPS (SEQ ID NO: 11); and (6) MMMMMRL (SEQ ID NO: 12). […] Most preferred is the peptide SLKRLPK (SEQ ID NO: 7).
(§2) Phage display: Incubating a library of phage that is all identical except for a sequence of 7 amino acids that are presented on the coat and randomly differ from phage to phage. Phage which express a sequence that specifically binds to α-synuclein are then isolated, cloned, and the DNA sequenced to determined the amino acid sequence. The 7 amino acid peptide is then synthesized and tested directly.
(§3) Phage display (phage display kit was from New England Biolabs (Beverly, Mass.)) was used to specifically select for peptides that can inhibit iron binding. […] The peptides were selected using the α-synuclein 121-131 and 61-87 peptides as the bait. One such peptide has the sequence SLKRLPK (SEQ ID NO: 7).

[2] = biological target: T2, NAC portion (approx. amino acids 61-87) of α-synuclein (Homo sapiens, UniProt P37840); experiment: Phage display selection for binding to NAC portion of α-synuclein; conditions: for relative binding properties: NAC portion binders; for binding to the NAC portion of α-synuclein: phage display
T2 construct: The peptides were selected using the α-synuclein 121-131 and 61-87 peptides as the bait
Description: as §1, §2, §3

[3] = test system: BE-M17 neuroblastoma cells; experiment: Iron-induced α-synuclein aggregation in BE-M17 cell lines (fractionation, immunoblot); format: cell-based, human; conditions: for formation of large α-synuclein aggregates migrating in the stacking gel: cells over-expressing A30P or wild type α-synuclein, 48 hrs, 10 mM FeCl2 and/or 5-500 μM dopamine
Method: Immunoblotting: Cells were harvested with SDS lysis solution (2% SDS, 10 mM Tris, pH 7.4, 2 mM β-glycerol phosphate, 1 μM AEBSF). The amount of protein was determined using the BCA assay (Pierce), […] per lane was run on 14% SDS polyacrylamide gels and transferred to nitrocellulose (200 mAmp, 12 hrs). The nitrocellulose was then incubated 1 hr in 5% milk/PBS, washed, incubated overnight in 1° antibody, washed, then incubated 3 hrs in peroxidase coupled 2° antibody and developed with chemiluminescent reagent (NEN).
Cell fractionation: For cell fractionation the cells were harvested in buffer containing 20 mM Tris, pH 7.4, 2 mM EDTA, 0.25 M sucrose, and 20 μg/mL protease inhibitor cocktail (Sigma). The cell lysate was sonicated and centrifuged at 100,000×g at 4° C. for 1 hr.
To test whether A53T and A30P mutations in α-synuclein increase the tendency of α-synuclein to aggregate in neurons, α-synuclein aggregation was determined in human BE-M17 neuroblastoma cells that were stably transfected with wild type, A53T or A30P α-synuclein. Each cell line was treated for 48 hours with freshly prepared FeCl2 (1 or 10 mM), then harvested, homogenized and fractionated into membrane and cytoplasmic components. The membrane (5 μg/lane) and cytoplasmic (20 μg/lane) components were immunoblotted with monoclonal anti-α-synuclein antibody.
To determine the effect of increasing the duration of exposure to iron on aggregation of α-synuclein at lower doses of iron, BE-M17 cells which are over-expressing A53T or wildtype α-synuclein were exposed to FeCl2 for 4 days. Under these conditions, doses as low as 0.3 μM FeCl2 produced detectable aggregation of α-synuclein in cells expressing A53T α-synuclein.
Neurol. 57:793-796 (2000)]. If so, adding free radical generators, such as hydrogen peroxide or dopamine, along with the iron might increase the amount of α-synuclein aggregation. To further determine that oxidation enhanced iron-induced aggregation of α-synuclein, BE-M17 cells over-expressing A30P or wildtype α-synuclein were treated for 48 hrs with 10 mM FeCl2 plus varying concentrations of dopamine (0.5, 50, and 500 μM).

α-synuclein [4] = biological target: T3, α-synuclein (Homo sapiens, UniProt P37840); experiment: Phage ELISA binding to α-synuclein absorbed to plastic well
T3 construct: His-6 (cleaved yes); made in house; host or cells: bacteria (IPTG-induced; Pro-Ex His 6 vector)
Method: Bound phage was detected by adding peroxidase coupled anti-phage antibody, incubating 1 hr, washing 5 times and detecting signal using the peroxidase substrate ABTS. Bound phage produces a dark green signal that is measured as optical density with a spectrophotometer. Using these conditions, the phage containing the SLKRLPK (SEQ ID NO: 7) peptide gave OD's of 0.882, 0.844, and 0.480 at dilutions of 1:10, 1:100, and 1:1000, respectively.

α-synuclein [5] = biological target: T3, α-synuclein; experiment: Tyrosine fluorescence assay of metal binding to α-synuclein; conditions: wildtype α-synuclein
Method: (§4) Because iron binds to other proteins that form aggregates and iron is known to accumulate in Parkinson's disease, iron might bind directly to α-synuclein. To confirm this hypothesis, the interaction of iron with α-synuclein was tested using tyrosine fluorescence as an indicator of iron binding. […] Fluorescence of tyrosine has been used to monitor binding of metals to β-amyloid [Garzon-Rodriguez W. et al., Bioorg. Med. Chem. Let., 9:2243-2248 (1999), which is hereby incorporated by reference]. A similar approach was taken to analyze binding of iron to α-synuclein. Tyrosine has a fluorescence emission spectrum that has a peak emission of 310 nm when excited at 280 nm, respectively (FIG. 2A). It was observed that binding of iron reduced the fluorescence of the tyrosines in α-synuclein. […] The Hill coefficient was 1.0 (R^2=1.0, P<0.0001), indicating one binding site for iron with no cooperativity (FIGS. 2A & B). α-Synuclein was also tested for binding to other metals, including CuCl2, ZnCl2 and MgCl2. Because the C-terminus of α-synuclein has a region with 7 glutamates and 4 aspartates, which together could chelate iron, we created a deletion construct lacking the last 27 amino acids on α-synuclein and analyzed binding of this construct.
To monitor the binding profiles of Fe(II) and Mg(II) to α-synuclein in vitro we used changes of tyrosine fluorescence. Tyrosine fluorescence is used as an indicator of changes in protein conformation or binding of metals. Excitation of tyrosine at 280 nm elicits fluorescence that peaks at 310 nm for monomeric tyrosine, and at 350-400 nm for tyrosinate or dimeric tyrosine. The fluorescence spectrum of α-synuclein yielded fluorescence peaks at 310 and 400 nm. The peak at 400 nm cannot be explained by the presence of dimeric tyrosine, due to dimerization of α-synuclein, because dimerization of α-synuclein decreases the fluorescence at 400 nm, and tends to eliminate the peak at 400 nm.

[6] = test system: BE-M17 cells over-expressing α-synuclein; experiment: Iron-mediated toxicity in BE-M17 cell lines, MTT assay; format: cell-based; conditions: for reduction of LD50 by α-synuclein over-expression: 48 hrs
Method: To determine if the conditions that produce α-synuclein aggregation also produce toxicity, the vulnerability of each cell line to iron and/or hydrogen peroxide-mediated toxicity was tested. Each cell line (untransfected, wild type, A53T and A30P a-synuclein) was treated with varying doses of FeCl2, H2O2 or FeCl2+H2O2 and the amount of toxicity was determined by MTT assay. […] Over-expression of A30P or wild type α-synuclein constructs reduced the LD50 values by ˜50%, although the amount of toxicity seen in A30P-expressing cells in response to low levels of iron was generally greater than toxicity seen with wildtype α-synuclein (FIG. 1A). To confirm that over-expression of α-synuclein increased the vulnerability of the neuroblastoma cells to iron, iron-induced toxicity was tested using a LDH assay (FIG. 1B). The LDH assay confirmed that over-expression of the α-synuclein constructs increases iron-induced toxicity (FIG. 1B).

α-synuclein ΔC1-113 = biological target: T4, α-synuclein ΔC1-113 (Homo sapiens, UniProt P37840); experiment: Tyrosine fluorescence assay of iron binding to C-terminal deletion construct
T4 construct: made in house
Method: as §4

A53T α-synuclein = biological target: T5, A53T α-synuclein (Homo sapiens, UniProt P37840, A53T); experiment: Tyrosine fluorescence assay of metal binding to A53T α-synuclein
T5 construct: His-6 (cleaved yes); made in house; host or cells: bacteria (IPTG-induced; Pro-Ex His 6 vector)
Description: We also examined how the A53T mutation in human α-synuclein affected binding of iron and magnesium. […] Previous studies have shown that A53T mutation changes the conformation of α-synuclein by increasing its helical content (Polymeropoulos et al., Science, 276:2045-7(1997)). These conformational changes might also reduce binding of magnesium to α-synuclein.

THRLPSR (listed as Homo sapiens)
relative binding properties ([1]; C-terminal portion binder): stronger binding properties | binding to the C-terminal portion of α-synuclein [1]: bind

THIHHPS (listed as Homo sapiens)
relative binding properties [2]: stronger binding properties | binding to the NAC portion of α-synuclein [2]: bind

NCCc1ccc(O)c(O)c1 [dopamine]
formation of large α-synuclein aggregates migrating in the stacking gel [3]: did not induce formation of large α-synuclein aggregates

RLRGRNQ (listed as Homo sapiens)
binding to the NAC portion of α-synuclein [2]: bind

SLKRLPK (listed as Homo sapiens)
relative binding properties [2]: stronger binding properties | binding to the NAC portion of α-synuclein [2]: bind | OD of bound phage (α-synuclein [4]; phage dilution 1:10): 0.882 | OD of bound phage (α-synuclein [4]; phage dilution 1:100): 0.844 | OD of bound phage (α-synuclein [4]; phage dilution 1:1000): 0.480 | binding of phage to α-synuclein by ELISA (α-synuclein [4]; phage expressing the sequence): particularly strong binding

RRRGMAI (listed as Homo sapiens)
binding to the C-terminal portion of α-synuclein [1]: bind

WRQTRKD (listed as Homo sapiens)
binding to the C-terminal portion of α-synuclein [1]: bind

TKHGPRK (listed as Homo sapiens)
binding to the C-terminal portion of α-synuclein [1]: bind

HLYHHKT (listed as Homo sapiens)
binding to the NAC portion of α-synuclein [2]: bind

[Cl][Fe][Cl] [FeCl2]
Hill coefficient of iron binding curve (α-synuclein [5]): 1.0 | IC50 (α-synuclein [5]; excitation 280 nm, sigmoidal fit, read-out: IC50 of quenching of α-synuclein tyrosine fluorescence (iron binding)): 173 µM | increase in vulnerability to induced toxicity in cells over-expressing α-synuclein [6]: ≤ 4 fold | reduction of LD50 by α-synuclein over-expression ([6]; A30P or wild type α-synuclein over-expressing cells versus untransfected): ~50% | reduction of LD50 by α-synuclein over-expression ([6]; A53T α-synuclein over-expressing cells versus untransfected): over 75% | α-synuclein aggregate formation ([3]; A53T-expressing cell line, 1 or 10 mM, 48 hours, membrane fraction): induced dose-dependent formation of heterogeneous high molecular weight α-synuclein aggregates | lowest dose producing detectable aggregation of α-synuclein ([3]; cells expressing A53T α-synuclein, 4 days): 0.3 µM | formation of large α-synuclein aggregates migrating in the stacking gel [3]: did not induce any aggregation | α-synuclein aggregate formation ([3]; untransfected, wildtype and A30P cell lines, 48 hr): did not induce α-synuclein aggregates | IC50 (α-synuclein ΔC1-113; construct lacking the last 27 amino acids): 726 µM | reduction in iron binding versus wildtype (α-synuclein ΔC1-113; ΔC1-113 versus wildtype α-synuclein): > 4 fold | effect of A53T mutation on binding to α-synuclein (A53T α-synuclein): did not change the apparent affinity

HYAKNPI (listed as Homo sapiens)
binding to the C-terminal portion of α-synuclein [1]: bind

WPFHHHR (listed as Homo sapiens)
binding to the NAC portion of α-synuclein [2]: bind

MMMMMRL (listed as Homo sapiens)
relative binding properties [2]: stronger binding properties | binding to the NAC portion of α-synuclein [2]: bind

ATINKSL (listed as Homo sapiens)
binding to the C-terminal portion of α-synuclein [1]: bind
